Test results published in publication PMC7141811.

How the values were obtained:
[1] = biological target: mEGFP-CaMKII-α (human Ca2+/calmodulin-dependent protein kinase II α, Avitag-linker-mEGFP-linker-CaMKII-α) (human) (UniProt Q9UQM7)
[2] = biological target: mEGFP-CaMKII-α (human Ca2+/calmodulin-dependent protein kinase II α, Avitag-linker-mEGFP-linker-CaMKII-α) (human) (UniProt Q9UQM7); test: single-molecule pull-down with TIRF colocalisation; mEGFP-CaMKII-α and mCherry-CaMKII-β* co-transfected in HEK 293T cells (α:β* 3:1 and 1:1); biotinylated holoenzymes captured from 100-200x diluted lysate on streptavidin-coated glass; colocalisation of green and red spots; data not shown

Sequence of UniProt Q9UQM7 (Q9UQM7 whole entry): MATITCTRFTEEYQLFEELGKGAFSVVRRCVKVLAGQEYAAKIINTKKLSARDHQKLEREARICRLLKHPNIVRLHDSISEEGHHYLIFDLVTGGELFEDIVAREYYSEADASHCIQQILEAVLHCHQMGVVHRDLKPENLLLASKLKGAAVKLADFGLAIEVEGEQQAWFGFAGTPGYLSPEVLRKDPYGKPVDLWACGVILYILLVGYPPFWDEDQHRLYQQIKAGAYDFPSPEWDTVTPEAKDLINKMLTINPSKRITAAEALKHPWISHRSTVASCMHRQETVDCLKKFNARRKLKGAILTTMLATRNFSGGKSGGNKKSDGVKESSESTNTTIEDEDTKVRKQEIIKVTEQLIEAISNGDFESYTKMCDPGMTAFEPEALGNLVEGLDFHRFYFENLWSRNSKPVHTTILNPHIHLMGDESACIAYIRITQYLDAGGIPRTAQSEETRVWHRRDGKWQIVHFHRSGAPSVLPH

Row | EC50 of CaMKII-α activation (autophosphorylation at Thr 286 of glass-immobilised holoenzymes, single-molecule TIRF) by Ca2+/CaM, 20 nM to 5 μM, 100 μM Ca2+, ATP [1] [nM] | percent colocalization of red and green spots (heterooligomeric holoenzymes) [2] [%] | Substance
1 | 50 to 100 | – | calmodulin (Ca2+/calmodulin) (from UniProt P62157 1-149) (natural protein)
2 | – | 80 | mCherry-CaMKII-β* (CaMKII-α in which the kinase-hub linker is replaced by that from CaMKII-β) (enzyme)
